Results taken from paper PMC9911985 (Journal of Molecular Biology, 2023).
Where no end group is shown, it is not given here. MBP = not defined here

Target: the molecule itself
Assay: SEC

{6xHis-MBP}-SCILLYVVFQKLSARLRALR (domain or fragment, reading uncertain) [6xHis-MBP-selenos 40–59]
binding result: binds
